test: yeast display, Sf9 membrane polyspecificity reagent, FACS + sequencing; frameworks hold sequencing errors
Summary of the method: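 After 36–48 hours of galactose induction, yeast (Saccharomyces cerevisiae BJ5465) displaying a synthetic nanobody library were stained at 4 °C for 1 hour with 10% biotinylated, detergent-solubilized Sf9 membrane reagent. Streptavidin microbeads enriched the stained cells before FACS sorting into low and high (top ~1%) gates on anti-HA and streptavidin fluorescence. Each clone's polyreactivity label reflects its gate of origin.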

| Sequence | polyreactivity (PSR sort gate) |
| --- | --- |
| QVQLVESGGGLVQAGGSLRLSCAASGFIFLEYAMGWYRQAPGKERELVAAISARTGSTYYADSVKGRFTISRDNEKNTVYLLMNSLIPEDTAVYYSNKLTWRGEVDYWGHGTQVTVSS | high polyreactivity |
| QVQLVESGGGLVQAGGSLRLSCAASGFICGLNAMGLYRQAPGKERELVAAIRSASSTNYADSVKGRFTISRDNAKNTVYLQMNSLKPEDTAVYYCAAEYVTYQQGFWGYDYWGQGTQVTVSS | low polyreactivity |
| QVQLVESGGGLVQAGGSLRLSCAASGFIFWVYALGWYRQAPGKERELVAAITSGGGSTYYADSVKGRFTISRDNAKNSVYLQMNSLKPEDTAVYYCNSVSWEGYDFDYWGQGTQVTVSS | high polyreactivity |
| QVQLVESGGGLVQAGGSLRLSCAASGSTFDTYAMGWYRQAPGKERELVAAISYSGASTYYADSVKGRFTISRDNAKNTVYLQMNSLKPEDTAVYYCSADGGYYWLYDYWGQGTQVTVSS | low polyreactivity |
| QVHLVESGGGLVQAGGSLRLSFAAYGIIFKYYAMVWYRQAPGKERELVASITDRGGSTYYSDSLKGRFTISRDNAKNTFYLQMNSLKPEDTAVYYCAAVPSTGKSGIRGGYWGQCTQVTVSS | high polyreactivity |
| QVQLVESGGGLVQAGGSLRLSCAASGHTFLEYAMGWYRQAPGKESELVASISFSAGSTYYADSVKGRFTISRDNAKNTVYLQLNSLKPEDTALYYCNAEYLYDYYYYWPYWFEFDYWGQGTQVTVSS | high polyreactivity |
| QVQLVESGGGLVQAGGRLRLSCSASGRIFATYAMGWYRQAPGKERELVASISRRGGSTYYADSVKGRFTISRDNAKKTVYLQMNSLKPEDTAVYYCAKLFDTERGYNYWGQGTQVTVSS | high polyreactivity |
| QVQLVESGGRLVQAGGSLRLSCAASGLTFPVYAMGWYRQAPGKEREFVASISGRGASTYYADSVKGRFTISRDNAKNTVYLQMNSLKPEDTAVYYCNADVWLLSYFPEYDYWGQGTQVTVSS | low polyreactivity |
| QVQLVESGGGLVQAGGSLRLSCAASGLIFTSYAMGWYRHAPGKERELVAAISTSGGRTYYADSVKGRFTISRDNAKNTVYVQMNSLKAEDTAVYYCYANWRYPYDYWGQGTQVTVSS | high polyreactivity |
| QVQLVESGGGVVQAGGSLRLSCAASGRTYGYNAMGWYRPAPGTERELVAAITKSGVSTYYADSVKGRFTISRDNAKNTVYLQMNSLKPEDTAVYYCAVDSYYYSMDYWGQGTQVTVSS | high polyreactivity |
| QVQLVESGGGLVQAGGSLRLSCASSGSTFYTNAMGWYRQAPGKERELVAGISSGGSTYYADSVKARFTISRDNAKNTVYLQINSLKPEDTAVYYCAAVERTRYWEFYYWGQGTQVIVSS | high polyreactivity |
| QVQLVESGGGLVQAGGSLRLSCDASGSIFMYNAMGWYRQAPGKERELVAAISSSSDRTYYADSVKGRFTISRDNAKKTVYLQMNSLKPEDTAVYYCNVVYIGWRKYEYWGQGTQVTVSS | high polyreactivity |
| QVQLVESGGGLVQAGGSLRLSCAASGRTFVLYAMGWYRQAPGKERELVAAITSGGSTNYADSVKGRFTISRDNAKNTVYLQMNSLKPEDTAVYDCAAVPVRYRYSYGYYYWGQGTQVTVSS | high polyreactivity |
| QVQLEESGGGLVQAGGSLRLSCAASGIIFGRYAMGWYRQAPGKQRELVAAITSGGSTSYADSVKGRFTISRDNAKNTVYLQMNSLKPEDTAVYYCAVVFVWGWPGYYWGQGTQVTVSS | high polyreactivity |
| QVQLVESGGGLVQAGGSLRLSCAASGGTFAGYAMGWYRQAPGKERELVAAITYRSSTTYYADSVKGRFTISRDNANNTVYLQMNSLKPEDTAVYYCAARTRGTGRNRDYWGQGTQVTVSS | high polyreactivity |
| QVQLVESGGGLVQAGGSLRLSCAASGSTFYIYAMGWYRQAPGKEREFVAAIDLSGSSTYADSVKGRFTISRDNAKNTVYLQMKSLKPEDTAVYYCAAYQIYQYDGPYDYWGQGTQVTVSS | low polyreactivity |
| QVQLQERGGGLVQVGGSQRLSCAASGNIFYNYAMGWYRHAQGKEREFDATINHGTSINYADSVKGRFTISRDNAKNSVYLQMNSLKPEDTAVYYCAADLSWTDNLFYWGQGTQVTVSS | low polyreactivity |
| QVQLVESGGGLVQAGGSLRLICAASGRTFYVNAMGWYRQAPGKERELVATITDRGGRTYYADSVKGRFTISRDNAKNTVYLQMNSLKPEDTAVYYCAATRWYEVDYWGQGTQVTVSS | low polyreactivity |
| QVQLVESGGGLVQAGGSLRLSCAASGITFDYYTMGWYRQAPGKERELVAGITRGGRTYYADSVKGRFTISRDNAKNTVYLQMNSLKPEDTAVYYCNADPWWRFDYWGQGTQVTVSS | low polyreactivity |
| QVQLVESGGGLVQAGGSLRLSCAASGNIFPAYAMGWYRQAPGKERELVAAISKSGGRTYYAESVKGRFTISRDNAKNTVYLQMNSLKQEDTAVYYALLTVRRAVPYSVRYDYWGQGTQVTVSS | high polyreactivity |
| QVQLVESGGGLVQAGGSLRLSCAASGLTFYTYAMGWYRQAPGKERELVAAISGGGRTHYADSVKGRFTISRDNAKNTVYLQMNSLKPEDTAVYYCAKDKGFLVRYDDLHDYDYWGQGTQVTVSS | low polyreactivity |
| QVQLVESGGGLVQAGGSLRLSCAASGITFTGYAMGWYRQAPGKERELVAAITSGGGRTYYADSVKGRFTISRDNAKNTVYLQMNSLKPEDTAVYYCAFRYHGYDYWGQGTQVTVSS | high polyreactivity |
| QVQLVESGGGLVQAGGSLRLSCGASGSIRANMGSYRQAPGKETELVAVITTSGASTSYAVSVKGRFTISRDNAKNTVYLQMNRLKPEDTAVYYCAADIYYYPHTYYRDGYYYWGQGSQVTVSS | low polyreactivity |
| QVQLVESGGGLVQAGGSLRLSCAASGSIFSSNAMGWYRQAPGKERELVAAIDYSGGRTYYADSVKGRFTISRDNAKNTVYLQMNSLKPEDTAVYYCAKLIPVHSRYDYWGQGTQVTVSS | low polyreactivity |
| QVQLVESGGGLVQAGGSLRLSCAASGFTFYGYAMGWYRQAPGKERELVAAISSSGGRTYYADSVKGRFTISRDNEKNTVYLQMNSLKPEDTAVYYCAAEYRSYRDGYWGLGTQVTVSS | high polyreactivity |
| QVQLVESGGGLDQAGGSLRLTCAASGNTFRSYAMGWSRQAPGKEREFVAAISLSGGNTYYADSVKGRFTISRDNAKNTVYVQMNSLKPEDTAVYYCAADYEYSGYGYWGQGTQVTVSS | high polyreactivity |
| QVQLVESGGGLVQAGGSLRLSCAASGLTLRRYAMGWYRQAPGKERELVASINSGTSTKYADSVKGRFTISRDNAKNTVYLQMNSLKPEDTAVYYCAAAGYFPTAGSRRAYYYWGQGTQVTVSS | high polyreactivity |
| QVQHVESGGGLLQAGGSLRLSCAASGITFFEYAMGWYRQAPGKERELVAVITSVGSTNYADSVKGRFTISRDNAKNTVYLQMNSLKPVDTAVYYCNARLVKYRWWYDYYYWGQGTQVTVSS | low polyreactivity |
| QVQLVESGGGFVQAGGSLRLSCAASGFIFYQYAMGWYRQAPGKERELVAAISWGGGSTYYADSVKGRFTISRDNAKNTVYLQMNSLKQEDTAVYYCNTDSAPYYWLSDNYDSCGQGTQVTVSS | low polyreactivity |
| QVQLVESGGGLVQAGGSLRLSCAASGRIFRFYDMGWYRQAPVKESELVASISSTGGRTYYADSVKGRFTISRDNAKNTVYVQMNSLKPEDTAVYYCNATRGQYVGRYYYWGQGTQVTVSW | high polyreactivity |

— the nanobody polyreactivity screen of Harvey et al. (2022)
